Results published in the supplement of paper PMC11246515.
± gives the standard deviation of the averaged measurements.

Test: total protein half-life in vivo (active degradation + dilution); higher = more stable protein
[1] = E. coli NCM3722 delta-clpP delta-lon delta-hslV, growth: N-lim chemostat, doubling time 6 h
[2] = E. coli NCM3722 delta-clpP, growth: N-lim chemostat, doubling time 6 h
[3] = E. coli NCM3722 delta-hslV, growth: N-lim chemostat, doubling time 6 h
[4] = E. coli NCM3722 delta-lon, growth: N-lim chemostat, doubling time 6 h
[5] = E. coli NCM3722 delta-smpB, growth: N-lim chemostat, doubling time 6 h
[6] = wild type E. coli NCM3722, growth: C-lim chemostat, doubling time 3 h
[7] = wild type E. coli NCM3722, growth: C-lim chemostat, doubling time 6 h
[8] = wild type E. coli NCM3722, growth: C-lim chemostat, doubling time 12 h
[9] = wild type E. coli NCM3722, growth: N-lim chemostat, doubling time 6 h
[10] = wild type E. coli NCM3722, growth: N-lim chemostat, doubling time 12 h
[11] = wild type E. coli NCM3722, growth: P-lim chemostat, doubling time 6 h
[12] = wild type E. coli NCM3722, growth: P-lim chemostat, doubling time 12 h

Sequence	total protein half-life in vivo [1]	total protein half-life in vivo [2]	total protein half-life in vivo [3]	total protein half-life in vivo [4]	total protein half-life in vivo [5]	total protein half-life in vivo [6]	total protein half-life in vivo [7]	total protein half-life in vivo [8]	total protein half-life in vivo [9]	total protein half-life in vivo [10]	total protein half-life in vivo [11]	total protein half-life in vivo [12]
MNAVTEGRKVLLEIADLKVHFEIKDGKQWFWQPPKTLKAVDGVTLRLYEGETLGVVGESGCGKSTFARAIIGLVKATDGHVAWLGKELLGMKPDEWRAVRSDIQMIFQDPLASLNPRMTIGEIIAEPLRTYHPKMSRQEVRERVKAMMLKVGLLPNLINRYPHEFSGGQCQRIGIARALILEPKLIICDEPVSALDVSIQAQVVNLLQQLQREMGLSLIFIAHDLAVVKHISDRVLVMYLGHAVELGTYDEVYHNPLHPYTRALMSAVPIPDPDLEKNKTIQLLEGELPSPINPPSGCVFRTRCPIAGPECAKTRPVLEGSFRHSVSCLKVDPL	5.54 ± 0.093 h	5.82 ± 0.9 h	4.61 ± 0.15 h	4.14 ± 0.14 h	6.25 ± 1.4 h	2.65 ± 0.51 h	6.13 ± 1.6 h	10.3 ± 0.15 h	5.03 ± 0.17 h	8.26 ± 0.85 h	5.69 ± 0.078 h	12.15 ± 0.025 h
MNAWEVNFDGLVGLTHHYAGLSFGNEASTRHRFQVSNPRLAAKQGLLKMKALADAGFPQAVIPPHERPFIPVLRQLGFSGSDEQVLEKVARQAPHWLSSVSSASPMWVANAATIAPSADTLDGKVHLTVANLNNKFHRSLEAPVTESLLKAIFNDEEKFSVHSALPQVALLGDEGAANHNRLGGHYGEPGMQLFVYGREEGNDTRPSRYPARQTREASEAVARLNQVNPQQVIFAQQNPDVIDQGVFHNDVIAVSNRQVLFCHQQAFARQSQLLANLRARVNGFMAIEVPATQVSVSDTVSTYLFNSQLLSRDDGSMMLVLPQECREHAGVWGYLNELLAADNPISELKVFDLRESMANGGGPACLRLRVVLTEEERRAVNPAVMMNDTLFNALNDWVDRYYRDRLTAADLADPQLLREGREALDVLSQLLNLGSVYPFQREGGGNG	4.1 ± 0.25 h	2.42 ± 0.32 h	2.8 ± 0.29 h	2.88 ± 0.035 h	2.75 ± 0.14 h	3.06 ± 0.31 h	5.17 ± 0.51 h	8.64 ± 0.32 h	2.74 ± 0.35 h	3.749 ± 0.0089 h	5.69 ± 0.31 h	9.79 ± 1.5 h
MNAYELQALRHIFAMTIDECATWIAQTGDSESWRQWENGKCAIPDRVVEQLLAMRQQRKKHLHAIIEKINNRIGNNTMRFFPDLTAFQRVYPDGNFIDWKIYQSVAAELYAHDLERLC	4.85 h					2.05 h	3.14 ± 0.49 h	5.24 ± 0.46 h				
MNDAIPRPQAKTRKALTPLLEIRNLTKSYDGQHAVDDVSLTIYKGEIFALLGASGCGKSTLLRMLAGFEQPSAGQIMLDGVDLSQVPPYLRPINMMFQSYALFPHMTVEQNIAFGLKQDKLPKAEIASRVNEMLGLVHMQEFAKRKPHQLSGGQRQRVALARSLAKRPKLLLLDEPMGALDKKLRDRMQLEVVDILERVGVTCVMVTHDQEEAMTMAGRIAIMNRGKFVQIGEPEEIYEHPTTRYSAEFIGSVNVFEGVLKERQEDGLVLDSPGLVHPLKVDADASVVDNVPVHVALRPEKIMLCEEPPANGCNFAVGEVIHIAYLGDLSVYHVRLKSGQMISAQLQNAHRHRKGLPTWGDEVRLCWEVDSCVVLTV	6.49 ± 0.28 h	6.64 ± 0.65 h	5.74 ± 0.33 h	6.22 ± 0.67 h	5.84 ± 0.35 h	2.93 ± 0.054 h	5.92 ± 0.21 h	11.2 ± 0.37 h	5.64 ± 0.26 h	11.5 ± 0.22 h	6.222 ± 0.037 h	11.8 ± 1.3 h
MNDEMKGKSGKVKVMYVRSDDDSDKRTHNPRTGKGGGRPGKSRADGGRRPARDDKQSQPRDRKWEDSPWRTVSRAPGDETPEKADHGGISGKSFIDPEVLRRQRAEETRVYGENACQALFQSRPEAIVRAWFIQSVTPRFKEALRWMAANRKAYHVVDEAELTKASGTEHHGGVCFLIKKRNGTTVQQWVSQAGAQDCVLALENESNPHNLGGMMRSCAHFGVKGVVVQDAALLESGAAIRTAEGGAEHVQPITGDNIVNVLDDFRQAGYTVVTTSSEQGKPLFKTSLPAKMVLVLGQEYEGLPDAARDPNDLRVKIDGTGNVAGLNISVATGVLLGEWWRQNKA [P0AGJ5]		5.71 ± 0.11 h	4.87 ± 0.12 h	5.2 ± 0.25 h	4.77 ± 0.058 h	2.91 ± 0.33 h	5.57 ± 0.52 h	10.3 ± 0.99 h	5.53 ± 0.15 h	10.7 ± 1.5 h	5.4 ± 0.26 h	10.9 ± 0.76 h
MNDIAHNLAQVRDKISAAATRCGRSPEEITLLAVSKTKPASAIAEAIDAGQRQFGENYVQEGVDKIRHFQELGVTGLEWHFIGPLQSNKSRLVAEHFDWCHTIDRLRIATRLNDQRPAELPPLNVLIQINISDENSKSGIQLAELDELAAAVAELPRLRLRGLMAIPAPESEYVRQFEVARQMAVAFAGLKTRYPHIDTLSLGMSDDMEAAIAAGSTMVRIGTAIFGARDYSKK	4.54 ± 0.38 h	5.38 ± 2.8 h	4.27 ± 0.37 h	5.68 ± 1.1 h	4.24 ± 0.45 h	3.39 ± 0.11 h	5.71 ± 0.17 h	8.8 ± 1 h	4.33 ± 0.43 h	7.53 ± 0.85 h	5.95 ± 0.28 h	11.1 ± 0.35 h
